± gives the standard deviation of the averaged measurements.
test system: ATP; assay: switch fluorescence ratio, 500 uM ATP over buffer (Cy3 cluster intensity, sum of 5 cycles each) (fold (ratio)); higher = stronger signal-on switching upon ATP binding; sequences stand for … in TCGTCGGCAGCGTCAGATGTGTATAAGAGACAGTTTTTTTTTTTTTTTTTTTTTTTTT…TC; settings: aptamer strand: ATP DNA aptamer (quencher-CACCTGGGGGAGTATTGCGGAGGAAGG + anchor), 100 nM annealed; ATP concentration: 500 uM
How it was run: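 Values give the fluorescence ratio for each switch-domain sequence, averaged from per-cluster ratios of summed target-cycle to summed buffer-cycle Cy3 intensity. The Cy3-labelled switching-strand clusters sat on a modified Illumina MiSeq flow-cell, were annealed to 100 nM quencher-labelled ATP aptamer, and were imaged in selection buffer, then after 15 min with 500 uM ATP at 22 °C. Five cycles ran with NaOH stripping and re-annealing between them, and clusters outside 100-1000 RFU were excluded.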
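Further: ATP exposure 15 min at 22 °C before imaging.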

Point of comparison: ACGGTGACGT, switch fluorescence ratio 1.01 ± 0.028. Against it:
- ACGGGGGGGA — within error, 1.03 ± 0.032
- ACGGGGGTGT — within error, 0.984 ± 0.024
- ACGGGGTTTC — the same, 1.01 ± 0.021
- ACGGGTATTA — within error, 0.9907 ± 0.0014
- ACGGGTATTG — within error, 1.02 ± 0.034
- ACGGGTCCGT — within error, 0.986 ± 0.011
- ACGGGTCGGA — within error, 1 ± 0.027
- ACGGGTGTAG — within error, 0.989 ± 0.052
- ACGGGTTCGC — within error, 0.988 ± 0.022
- ACGGTAATTC — higher, 1.184 ± 0.011
- ACGGTAGGGT — higher, 1.12 ± 0.06
- ACGGTCCAAG — within error, 1.02 ± 0.015
- ACGGTGCATG — within error, 1.018 ± 0.006
- ACGGTGTATT — within error, 0.998 ± 0.037
- ACGGTTGCGC — the same, 1.01 ± 0.034
- ACGGTTTGGC — within error, 0.939 ± 0.063
- ACGGTTTTAA — within error, 1 ± 0.03
- ACGGTTTTAC — higher, 1.12 ± 0.012
- ACGTAAAAAG — the same, 1.01 ± 0.065
- ACGTAACATA — higher, 1.22 ± 0.017
- ACGTACTACT — higher, 1.3895 ± 0.00013
- ACGTACTATT — higher, 1.45 ± 0.23
- ACGTAGGTTC — higher, 1.063 ± 0.0048
- ACGTAGGTTT — within error, 1.03 ± 0.046
- ACGTATCGGC — higher, 1.056 ± 0.0075
- ACGTATTCAT — higher, 1.11 ± 0.013
- ACGTATTTTT — higher, 1.12 ± 0.018
- ACGTCCCGGG — higher, 1.09 ± 0.015
- ACGTCGCATG — higher, 1.09 ± 0.046
- ACGTCGGGGG — within error, 1 ± 0.021
- ACGTGACAGG — higher, 1.22 ± 0.013
- ACGTGATTTG — within error, 1.04 ± 0.025
- ACGTGCAACT — within error, 0.981 ± 0.049
- ACGTGGGGGA — within error, 1.02 ± 0.051
- ACGTGTGGGA — within error, 1.04 ± 0.02
- ACGTTAAGTG — within error, 1 ± 0.011
- ACGTTAGGGT — within error, 1.04 ± 0.058
- ACGTTATTTT — higher, 1.126 ± 0.0061
- ACGTTGACAG — higher, 1.05 ± 0.011
- ACGTTGCAGC — higher, 1.047 ± 0.006
- ACGTTGCGAG — within error, 0.994 ± 0.015
- ACGTTGCGTT — within error, 1.02 ± 0.025
- ACGTTGCTTA — the same, 1.007 ± 0.0052
- ACGTTGGAGA — higher, 1.06 ± 0.0051
- ACGTTGGTAA — within error, 1.02 ± 0.032
- ACGTTGTACA — within error, 1.06 ± 0.038
- ACGTTGTACT — higher, 1.14 ± 0.037
- ACGTTTATGT — within error, 1.02 ± 0.02
- ACGTTTGGGG — within error, 0.968 ± 0.049
- ACGTTTGTAT — within error, 1 ± 0.031
- ACGTTTTGTG — within error, 0.96 ± 0.028
- ACTAAAAAAA — within error, 0.991 ± 0.025
- ACTAACGGGA — higher, 1.39 ± 0.15
- ACTAATAAGT — within error, 0.999 ± 0.028
- ACTAATGGGC — within error, 1.03 ± 0.026
- ACTAATGTGG — within error, 0.9959 ± 0.0068
- ACTACAGACG — higher, 1.11 ± 0.061
- ACTACCTTAC — higher, 3.15 ± 0.077
- ACTACGGATT — within error, 1.06 ± 0.026
- ACTACGTGGG — higher, 1.0708 ± 0.00037
- ACTACGTTAC — higher, 2.88 ± 0.039
- ACTAGAAGAT — within error, 0.9829 ± 0.0038
- ACTAGAAGGG — within error, 0.9833 ± 0.0037
- ACTAGCAGCT — the same, 1.01 ± 0.025
- ACTAGCTCTG — within error, 1 ± 0.023
- ACTAGGCCGA — the same, 1.01 ± 0.044
- ACTAGGCTGG — the same, 1.01 ± 0.028
- ACTAGGGGCA — within error, 0.98 ± 0.036
- ACTAGGGTCT — within error, 1 ± 0.081
- ACTAGGGTTT — within error, 1.018 ± 0.0027
- ACTAGTTTTG — within error, 0.976 ± 0.033
- ACTATATTTA — within error, 1.034 ± 0.0063
- ACTATATTTG — within error, 1.04 ± 0.022
- ACTATCCAGG — higher, 2.226 ± 0.0049
- ACTATCGAAA — higher, 1.09 ± 0.03
- ACTATGAGCC — the same, 1.01 ± 0.021
- ACTATGGGGC — the same, 1.01 ± 0.081
- ACTATGTGGT — within error, 0.9971 ± 0.0096
- ACTATTATTC — within error, 1.05 ± 0.034
- ACTATTTCGA — the same, 1.01 ± 0.03
- ACTCACATAG — higher, 1.217 ± 0.0056
- ACTCAGACCT — higher, 1.3 ± 0.067
- ACTCAGGTCC — higher, 1.077 ± 0.0054
- ACTCAGTGTC — within error, 1.05 ± 0.023
- ACTCCAATGG — higher, 1.85 ± 0.12
- ACTCGATGTG — within error, 0.989 ± 0.045
- ACTCGGGGTT — within error, 0.998 ± 0.04
- ACTCGGGTAG — within error, 1.028 ± 0.0056
- ACTCGGTGTG — within error, 0.992 ± 0.029
- ACTCTACTTG — higher, 1.42 ± 0.16
- ACTCTGCCGG — higher, 1.2 ± 0.048
- ACTCTGTGC — higher, 1.21 ± 0.032
- ACTCTTGCTT — higher, 1.072 ± 0.0046
- ACTGAAGTTA — within error, 0.98 ± 0.018
- ACTGACCCCC — higher, 1.58 ± 0.14
- ACTGAGACGA — within error, 1.07 ± 0.044
- ACTGAGGATA — within error, 1 ± 0.037
- ACTGAGGCTA — higher, 1.07 ± 0.011
- ACTGATCTGA — within error, 0.987 ± 0.04

From the supplement of paper PMC10126150
